Results published in US7105164B1, “HIV-specific cytotoxic T-cell responses” (priority 1999, dated 2006).
Entries after “also recorded” stand apart in the source; their conditions may differ.

Biological target: T1, HLA-A2 on T2 cells (Homo sapiens, UniProt P04439, D140Y/D185E/D98H/E176V/E277Q/G131W/G231S/I119V/I121R/I166T/I218V/L300P/L318F/N151K/N90K/P208A/P217A/Q86G/Q94H/R138H/R169H/T345S)
T1 construct: T2 cell line expressing the HLA-A2 molecules was obtained from Dr Peter Creswell; endogenous in cells; host or cells: T2 cell line (TAP-deficient human cell line)
Test: in vitro HLA-A2 stabilization (peptide-induced MHC class 1 assembly assay, FACS) on T2 cells
Type: cell-based
Details: FIG. 1; for binding to and stabilization of membrane-bound HLA-A2 (shift of fluorescent peak): BB7.2 antibody, FACS
Description: Location of the potential CTL containing motifs of the HIV-1 (LAI) Rev protein has been predicted by the reported peptide-binding motif algorithms. […] The ability of the peptides containing these motifs to bind and stabilize membrane-bound HLA-A2 molecule was assessed using the T2 cell line. The cell line has been well documented to have defective TAP transporter function resulting in the majority of the intracellularly generated peptides being unable to be transported into the endoplasmic reticulum to associate with the newly synthesized HLA class 1 molecules, i.e. HLA-A2 (see references 4, 5). […] Upon interaction with suitable peptides introduced exogenously, the stability of the HLA-A2 molecules can be restored.
T2 cell line expressing the HLA-A2 molecules was obtained from Dr Peter Creswell at the Howard Hughes Research Institute of Yale University. The cells were propagated in Iscove's complete medium (Iscove's medium supplemented with 10% heat-inactivated bovine serum, 120.0 units per ml of penicilin G sodium, 120 μg per ml of streptomycin sulphate, and 0.35 mg per ml of L-glutamine). The ability of individual 8 to 13 mer peptides, prepared as described in Example 1 and identified in Table 1, to bind and modulate the stability of the A2 molecules on T2 cells was determined using a peptide-induced MHC class 1 assembly assay, which was modified from a protocol described by Yuping Deng et al. (ref. 6).
In essence, 1×10^6 T2 cells were incubated with a specified concentration of the test peptide in 250.0 μl of Iscove's serum-free medium (Iscove's medium supplemented with 120.0 units per ml of penicillin G sodium, 120.0 μg per ml of streptomycin sulphate and 0.35 mg per ml of L-glutamine) in a sterile Eppendorf tube at 37° C. overnight. The cells were then incubated on ice for 30 min before 1.0 ml of Iscove's complete medium supplemented with 5.0 μg per ml of brefeldin A, 12.5 μg per ml of anisomycin and 5.0 μg per ml of cyclohexamide was added. The samples were then incubated for 3.0 hr in a 37° C. CO2 incubator.
In the presence of the drugs, further protein synthesis and intracellular delivery of HLA-A2 molecules to the cell surface are inhibited, and de-stabilization of the conformation of the membrane-bound class 1 molecules at the physiological temperature occurs.
The cells were then washed twice with ice-cold PBA (a buffer containing 0.9% sodium chloride, 0.5% bovine serum albumin and 0.02% sodium azide). 100.0 μl of PBA containing 5.0 μg of a conformation-sensitive HLA-A2-specific mouse monoclonal antibody, BB7.2 (ref. 7), was then added to each test sample. The reaction was allowed to take place on ice for 45 min. The cells were then washed three times with ice-cold PBA.
The binding of BB7.2 was then detected by adding […] containing 1.0 μg of goat anti-mouse IgG F(ab′) fluorescein (FITC) conjugate to each cell sample. After 30 min incubation on ice, the cells were washed twice with PBA, and twice again with PBS, pH 7.2. Cells were fixed immediately after washing was completed by adding 100.0 μl of 1.0% paraformaldehyde to the cell pellet. The cells were gently resuspended and were FACS analysed usually within three days after the experiments were completed.
The fluorescence index, which is an indicator for increased density of membrane-bound A2 molecules, was calculated by dividing the mean fluorescence of an experimental sample (peptide treated T2 cells) by the mean fluorescence of the control sample (T2 cells not treated with peptide).

| Sequence | binding to and stabilization of membrane-bound HLA-A2 (shift of fluorescent peak) | order of potency by comparison of fluorescence indices |
| --- | --- | --- |
| YLGRSAEPVPL (Human immunodeficiency virus type 1) [CLP-178] | bound to HLA-A2 on T2 cells; also recorded: able to bind and stabilize; also recorded: capable of binding to HLA-A2 on T2 cells | CLP-177>CLP-72>CLP-178>CLP-182 |
| YLGRSAEPV (Human immunodeficiency virus type 1) [CLP-177] | bound to HLA-A2 on T2 cells; also recorded: able to bind and stabilize; also recorded: capable of binding to HLA-A2 on T2 cells | CLP-177>CLP-72>CLP-178>CLP-182 |
| PLQLPPLERLIL [CLP-182] | bound to HLA-A2 on T2 cells; also recorded: able to bind and stabilize; also recorded: capable of binding to HLA-A2 on T2 cells | CLP-177>CLP-72>CLP-178>CLP-182 |
| ILVESPAVL (Human immunodeficiency virus type 1) [CLP-72] | bound to HLA-A2 on T2 cells; also recorded: able to bind and stabilize; also recorded: capable of binding to HLA-A2 on T2 cells | CLP-177>CLP-72>CLP-178>CLP-182 |
